Assays:
[1] = target: T1, ScaI (Streptomyces caespitosus) (UniProt O52691); assay: cleavage_in_vitro; details: NEB2, 10 mM MgCl2, 37 C; printed as 1/8
T1 sequence: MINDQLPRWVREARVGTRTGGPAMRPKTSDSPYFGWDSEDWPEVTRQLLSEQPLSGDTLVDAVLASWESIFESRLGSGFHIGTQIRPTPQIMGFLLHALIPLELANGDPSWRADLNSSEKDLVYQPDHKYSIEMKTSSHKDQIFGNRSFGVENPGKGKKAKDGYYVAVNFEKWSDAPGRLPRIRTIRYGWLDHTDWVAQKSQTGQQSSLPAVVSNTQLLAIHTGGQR

[2] = system: T2, SphI (Streptomyces phaeochromogenes); assay: cleavage_in_vitro; details: NEB1, 10 mM MgCl2, 37 C
T2 sequence: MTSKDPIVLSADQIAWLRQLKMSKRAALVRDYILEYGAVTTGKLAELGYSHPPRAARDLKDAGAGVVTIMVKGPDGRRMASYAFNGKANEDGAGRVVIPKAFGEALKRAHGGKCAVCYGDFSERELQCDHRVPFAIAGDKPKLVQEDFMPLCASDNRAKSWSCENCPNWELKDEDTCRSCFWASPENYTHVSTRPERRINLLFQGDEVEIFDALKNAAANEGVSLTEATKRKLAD

lambda DNA was tested. Which activity (fidelity index) [1] did it give?
Its activity (fidelity index) is 0.125.

And the activity (fidelity index) [2]?
Its activity (fidelity index) is 64.

Source: patent publication US20130115676
